Experimental data reported in publication PMC8106667 (Molecular cell, 2021).
Changes are numbered by the printed parent chain.

What was measured:
Assay in all cases: pull-down
[1] = biological target: T1, GST-CDC6 wild type, full length (human, UniProt Q99741 1-560)
T1 sequence (looked up): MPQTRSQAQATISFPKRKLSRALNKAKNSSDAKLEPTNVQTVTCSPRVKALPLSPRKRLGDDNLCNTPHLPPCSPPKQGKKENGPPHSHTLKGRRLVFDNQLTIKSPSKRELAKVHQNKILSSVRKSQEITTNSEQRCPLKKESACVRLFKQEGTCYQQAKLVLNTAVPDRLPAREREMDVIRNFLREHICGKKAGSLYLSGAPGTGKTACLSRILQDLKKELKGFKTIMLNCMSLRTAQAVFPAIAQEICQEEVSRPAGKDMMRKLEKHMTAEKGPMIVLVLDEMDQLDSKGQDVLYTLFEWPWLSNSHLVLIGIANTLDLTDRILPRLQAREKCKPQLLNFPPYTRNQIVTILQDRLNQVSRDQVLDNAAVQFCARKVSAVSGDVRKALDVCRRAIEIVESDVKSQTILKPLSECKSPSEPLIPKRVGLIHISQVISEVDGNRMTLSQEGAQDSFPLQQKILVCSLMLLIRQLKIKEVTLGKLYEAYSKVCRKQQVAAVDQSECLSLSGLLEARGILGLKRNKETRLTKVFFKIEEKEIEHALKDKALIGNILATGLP

[2] = biological target: T2, MBP-ORC1-230-400 A-A (Cy motif mutant) (human, UniProt Q13415 230-400, K235A | L237A)
T2 sequence (looked up): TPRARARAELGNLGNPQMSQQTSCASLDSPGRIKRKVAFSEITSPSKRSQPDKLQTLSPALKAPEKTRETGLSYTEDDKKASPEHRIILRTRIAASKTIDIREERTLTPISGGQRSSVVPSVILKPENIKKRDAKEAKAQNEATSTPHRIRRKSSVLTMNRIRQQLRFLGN

[3] = biological target: T3, MBP-ORC1-230-400 wild type (human, UniProt Q13415 230-400)
T3 sequence (looked up): T2 sequence (looked up) with A6K, A8L

binding result [1]: binds
binding result [2]: binds
binding result [3]: binds
B1: ORC1-180-240-HIS6 wild type (domain or fragment, human, UniProt Q13415 180-240, looked up)
chain: QESAAKCQKPVRAKSKSAESPSWTPAEHVAKRIESRHSASKSRQTPTHPLTPRARKRLELG
